# Data taken from the supplement of paper PMC9170038.
# Test system: MS2 coat protein
# Test: apparent KD of MS2 coat protein; designed switch direction (-1 OFF switch, 1 ON switch): -1; higher = weaker reporter binding
# Procedure, shortened: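 Transcription of designed RNA switches on Illumina chips was done by stalled E. coli RNA polymerase. SNAP-549-labelled MS2 coat protein was then titrated in doubling steps from 0.7 or 1.5 nM to 3 µM, with steps of 0.8–1.5 h at the lowest and 10–20 min at the highest concentration. The per-design median over clusters of curve-fitted normalised fluorescence is reported as apparent KD.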
# [1] = input ligand: microRNA oligo, concentration not stated
# [2] = Eterna round: R95, input ligand: microRNA oligo, concentration not stated
# [3] = Eterna round: R95, input ligand: FMN 200 uM
# [4] = Eterna round: R95, input ligand: none
Sequence,apparent KD of MS2 coat protein (input ligand: FMN 200 uM),apparent KD of MS2 coat protein (input ligand: none),apparent KD of MS2 coat protein [1],apparent KD of MS2 coat protein [2],apparent KD of MS2 coat protein [3],apparent KD of MS2 coat protein [4]
"AUAUUGUGAGGAUAUGAACUUAGUAUCGAAAGAUACUUAGUUCAGAAGGCACAUGAGGAUCACCCAUGUUUCUC [Long static hairpin v17] (Eterna round: R97, puzzle: Exclusion 4)",0.883 µM,0.0698 µM,–,–,–,–
"AUAUUGUGAGGAUAUGAACUUAGUAUCGAAAGAUAGUAAGUUCAGAAGGCACAUGAGGAUCACCCAUGUUUCUC [Long static hairpin v8] (Eterna round: R97, puzzle: Exclusion 4)",0.399 µM,0.0698 µM,–,–,–,–
"AUCAGCUCGUGAGGAUAUACAUCACUGCUUCGGCAGUGUAUUAAGAUCACAUGAGGAUCACCCAUGUAGAAGGUACGAGCUGAU [ENG2/2-C3] (Eterna round: R96, puzzle: Exclusion NG 2)",0.215 µM,0.0261 µM,0.0208 µM,–,–,–
"AUCAUAACCUAGGAUAUGUAGCAGCCCGCAGCGACAGAAGGAGGUACAUGAGGAUCACCCAUGUCCACUCCCGU [EX6 C.11] (Eterna round: R97, puzzle: Exclusion 6)",0.0124 µM,0.0118 µM,–,–,–,–
"AUCAUGGACGCAGGAUAUACAUGAGGAUCACCCAUGUAGUAUGAUCAGUGAUGGUCGUCGAUAGUGUAGAAGGGCGGCUAGUAG [random] (Eterna round: R96, puzzle: Exclusion NG 2)",0.0344 µM,0.0328 µM,0.0242 µM,–,–,–
AUCAUGUAAGGAUAUCUUACAUGUGACUUCGGUCACUGUCAAGAGAAGGUACAUGAGGAUCACCCAUGUAUGAC [Ex4-3: 51] (puzzle: Exclusion 4),–,–,–,0.0168 µM,–,–
AUCAUGUCAGGAUAUAUGACAUGGCUCUUCGGAGCAAGCUCAUAGAAGGGACAUGAGGAUCACCCAUGUAGAGC [Ex4-3: 22] (puzzle: Exclusion 4),–,–,–,0.0221 µM,–,–
"AUCGAGAUAGGAUAUGCCCAAGUAAACAUGAGGAUCACCCAUGUGGGUCACCUCUUCACGGUAGAAGGGUUAGAUU [Eternabot (L1) Solution 90] (Eterna round: R97, puzzle: Exclusion 5)",0.062 µM,0.0818 µM,–,–,–,–
"AUCGUACAGCAAAGCUGUACGAGUACAUGAGGAUCACCCAUGUAGGAUAUGGUACGCAAAGCGUGCUAGAAGGAUAUGAGAUUU [Mat - Exclusion NG 3 - Mod of JL - D101] (Eterna round: R96, puzzle: Exclusion NG 3)",0.0485 µM,0.0487 µM,0.0304 µM,–,–,–
"AUCGUGUUAGGAUAUACACGACGCUGGGUAGCGGGCGGAGGGUAGAAGGGACAUGAGGAUCACCCAUGUUCGGG [Somalaesar] (Eterna round: R97, puzzle: Exclusion 4)",0.0412 µM,0.0466 µM,–,–,–,–
"AUCUGCACGCUGCGGUCCUACAUGAGGAUCACCCAUGUGGUCUGGUGGCGUGGGUCACCGGACUUGGCUCGUCUUGC [salish99_S_TOV1_R5_054] (Eterna round: R97, puzzle: Sensor, turn-off variant 1)",0.0198 µM,0.0196 µM,–,–,–,–
"AUCUUGUCAGGAUAUCUUACAUAACAAUCGUAGUUACCAUUGGAGAAGGGACAUGAGGAUCACCCAUGUUAGCC [tap-tap-tappy42] (Eterna round: R97, puzzle: Exclusion 4)",0.0208 µM,0.0198 µM,–,–,–,–
"AUGAACAAGCUUUUUGCAAACAUGAGGAUCACCCAUGUCUUAUAUCGUACCAUGCUAGGCCCUAGCAUGGUACGAUU [jl sellena mod 2] (Eterna round: R97, puzzle: Sensor, turn-off variant 1)",0.0176 µM,0.0146 µM,–,–,–,–
AUGAAGUAAGGAUAUACAUGAGGAUCACCCAUGUAAAGAAAAGUAAUGGGAGUAAGAAGUAGAAGGUACGAGAA [JR_Exclu3_Sub061] (puzzle: Exclusion 3),–,–,–,0.0482 µM,0.0534 µM,0.0541 µM
"AUGAGCAGACGGAGAUCCAACAUGAGGAUCACCCAUGUCUCAAAAGCUUUUUGCUCAUCUUAUUGUACCUUGGUGCA [Mat - Sensor v3 - turn-off var 1 - JL Mod - D17] (puzzle: Sensor v3, turn-off variant 1)",–,–,–,0.0165 µM,0.172 µM,0.213 µM
"AUGAGCAGACGGAGAUCCAACAUGAGGAUCACCCAUGUCUCAUAAGCUUUUUGCUCAUCUUAUUGUACCUUGGUGCU [Mat - Sensor v3 - turn-off var 1 - JL Mod - D19] (puzzle: Sensor v3, turn-off variant 1)",–,–,–,0.0115 µM,0.191 µM,0.251 µM
"AUGAGGUUAGGAUAUACAUGAGGAUCACCCAUGUUGGAGAAGGAAAUGUAAGUAGCGAGUAGAAGGAACGGAGC [JR_Exclu3_Sub059] (Eterna round: R96, puzzle: Exclusion 3)",0.0486 µM,0.049 µM,0.0404 µM,–,–,–

Sequence,apparent KD of MS2 coat protein (input ligand: FMN 200 uM),apparent KD of MS2 coat protein (input ligand: none),apparent KD of MS2 coat protein [1],apparent KD of MS2 coat protein [2],apparent KD of MS2 coat protein [3],apparent KD of MS2 coat protein [4]
AUGAGGUUAGGAUAUACAUGAGGAUCACCCAUGUUGGAGAAGGAAAUGUAAGUAGCGAGUAGAAGGAACGGAGC [JR_Exclu3_Sub059] (puzzle: Exclusion 3),–,–,–,0.0441 µM,–,–
"AUGAUACAUGAGGAUCACCCAUGUUAGGAUAUACGCAUGCAUGCAUGCAUGCAUGCAAGUAGAAGGAACCAUGC [Design #2] (Eterna round: R97, puzzle: Exclusion 1)",0.0568 µM,0.0482 µM,–,–,–,–
"AUGCUCCGUGUAGGAUAUCGCCGCACCACUCGGCGAGAAGGACAUGAGGAUCACCCAUGUAUGUUAUUAUCACGUGUGGCGCGC [Design 43] (Eterna round: R96, puzzle: Exclusion NG 1)",0.0151 µM,0.0159 µM,0.013 µM,–,–,–
"AUGGGACAUGAGGAUCACCCAUGUCAGGAUAUGCUCUGAUGCGGCGUACGCCGUGCUAGCAGAAGGGACUACCU [EX1 C.19] (Eterna round: R97, puzzle: Exclusion 1)",0.029 µM,0.028 µM,–,–,–,–
"AUGGGUCCUCACGGAGCUACAUGAGGAUCACCCAUGUGGAUUGAGGAUAUCGACAGCCGACGGCUCGAGAAGGCAGUUUACUGU [Ex NG3 #96] (Eterna round: R96, puzzle: Exclusion NG 3)",0.035 µM,0.0264 µM,0.0232 µM,–,–,–
"AUGGGUCGGGAGGAUAUUCGGGCUCAUGGGCUUGGAGAAGGCUCGACAUGAGGAUCACCCAUGUAAGUGUUCUU [-25, -23.1 kcal, A 22%] (Eterna round: R97, puzzle: Exclusion 6)",0.55 µM,0.0322 µM,–,–,–,–
AUGGUCCGAGGAUAUAUUAUGUGAUACAUGAGGAUCACCCAUGUUAUAUGAUGGAUGUUAGUAGAAGGCGGACUAC [salish99_ex5_r3_002] (puzzle: Exclusion 5),–,–,–,0.0822 µM,0.0893 µM,0.103 µM
"AUGGUUCGGUCAGGAUAUCGUAGAUUGAAUAGUAUGAUUUACAUGAGGAUCACCCAUGUUACAUACGAGAAGGGACCGAAUCAU [JR_ExcNG2_Sub024] (Eterna round: R96, puzzle: Exclusion NG 2)",–,–,0.0104 µM,–,–,–
"AUGUACCGGUGAGGAUAUUUAUAAUAGAGCUUUAUGAUAUACAUGAGGAUCACCCAUGUUACUUUAAAGAAGGCAUCGGAUUAA [Mat - Exclusion NG 2 - Mod of JL - D91] (Eterna round: R96, puzzle: Exclusion NG 2)",0.0153 µM,0.0212 µM,0.0153 µM,–,–,–
"AUGUGACAUGAGGAUCACCCAUGUCAGGAUAUUUCCAAAAUAAAAUAAAACCGCGUGGAAAGAAGGGACGUGGC [EX1 A.4] (Eterna round: R97, puzzle: Exclusion 1)",0.0274 µM,0.0219 µM,–,–,–,–
"AUGUGCACGCUGCGGUCCUACAUGAGGAUCACCCAUGUGGUCUGGUGGCGUGGGUCACCGGACUUGGCUCGUCUUGA [salish99_S_TOV1_R5_055] (Eterna round: R97, puzzle: Sensor, turn-off variant 1)",0.056 µM,0.0519 µM,–,–,–,–
"AUGUGCACGCUGCGGUCCUACAUGAGGAUCACCCAUGUGGUCUGGUGGCGUGGGUCACCGGACUUGGCUCGUCUUGU [salish99_S_TOV1_R5_056] (Eterna round: R97, puzzle: Sensor, turn-off variant 1)",0.0337 µM,0.0401 µM,–,–,–,–
"AUGUGCACGCUGCGGUCCUACAUGAGGAUCACCCAUGUGGUCUGGUGGCGUGGGUCGCCGGACUUGGCUCGUCUUGG [salish99_S_TOV1_R5_031] (Eterna round: R97, puzzle: Sensor, turn-off variant 1)",0.0156 µM,0.0159 µM,–,–,–,–
"AUGUGCUGCUAAGGAUAUGUGAACUGUUUCCGAAUAGAAGGUAGCUAUACAUGAGGAUCACCCAUGUACGUGAACCGAGUAAAA [Eternabot solution 20] (Eterna round: R96, puzzle: Exclusion NG 1)",0.02 µM,0.0246 µM,0.019 µM,–,–,–
"AUGUUGCGAGGAUAUAUAAGGGUAUAUUAAUAAGAUAUGGAACAUGAGGAUCACCCAUGUAGAAGGUGCAUAAC [JR_Ex2_Sub041] (Eterna round: R97, puzzle: Exclusion 2)",0.0456 µM,0.0336 µM,–,–,–,–
"AUGUUGCGAGGAUAUAUAAGGGUAUAUUCAUAAGAUAUGGAACAUGAGGAUCACCCAUGUAGAAGGUGCAUAAC [JR_Ex2_Sub042] (Eterna round: R97, puzzle: Exclusion 2)",0.2 µM,0.0462 µM,–,–,–,–
